Consider three molecules from US11504441B2, “Radiolabeled compounds targeting the prostate-specific membrane antigen” (PROVINCIAL HEALTH SERVICES AUTHORITY, priority 2019, dated 2022).

The nature of one data set: in vivo. To be noted: male, NODSCID 1L2RγKO, mouse, iv, total radioactivity; for excreta dose per gram or mL at 1 h: Urine uptake.
Data set [1] has as its system PSMA-expressing LNCaP cancer xenografts.
Procedure: (§1) LNCaP cell line was obtained from ATCC (LNCaP clone FGC, CRL-1740). […] Cells were cultured in PRM I 1640 medium supplemented with 10% FBS, penicillin (100 U/mL) and streptomycin (100 μg/mL) at 37° C. in a humidified incubator containing 5% CO2. Cells grown to 80-90% confluence were then washed with sterile phosphate-buffered saline (1× PBS pH 7.4) and collected by trypsinization. The collected cells concentration was counted with a Hausser Scientific (Horsham, Pa.) Hemacytometer.
(§2) Imaging and biodistribution experiments were performed using NODSCID 1 L2RγKO male mice. Mice were anesthetized by inhalation with 2% isoflurane in oxygen, and implanted subcutaneously with 1×10^7 LNCaP cells behind left shoulder. Mice were imaged or used in biodistribution studies when the tumor grew up to reach 5-8 mm in diameter during 5-6 weeks.
(§3) PET imaging experiments were conducted using Siemens Inveon micro PET/CT scanner. Each tumor bearing mouse was injected 6-8 MBq of Ga-68 labeled tracer through the tail vein under anesthesia (2% isoflurane in oxygen). The mice were allowed to recover and roam freely in their cage. After 50 min, the mice were sedated again with 2% isoflurane in oxygen inhalation and positioned in the scanner. A 10-min CT scan was conducted first for localization and attenuation correction after segmentation for reconstructing the PET images. Then, a 10-min static PET imaging was performed to determined uptake in tumor and other organs. The mice were kept warm by a heating pad during acquisition. For biodistribution studies, the mice were injected with the radiotracer as described above. The mice was anesthetized with 2% isoflurane inhalation, and euthanized by CO2 inhalation. Blood was withdrawn immediately from the heart, and the organs/tissues of interest were collected. The collected organs/tissues were weighed and counted using a Perkin Elmer (Waltham, Mass.) Wizard2 2480 gamma counter. The uptake in each organ/tissue was normalized to the injected dose using a standard curve, and expressed as the percentage of the injected dose per gram of tissue (% ID/g).
(§4) LNCaP cell line was obtained from ATCC (LNCaP clone FGC, CRL-1740). […] Cells were cultured in PRM I 1640 medium supplemented with 10% FBS, penicillin (100 U/mL) and streptomycin (100 μg/mL) at 37° C. in a humidified incubator containing 5% CO2. Cells grown to 80-90% confluence were then washed with sterile phosphate-buffered saline (1× PBS pH 7.4), and collected by trypsinization. The collected cell concentration was counted with a Hausser Scientific (Horsham, Pa.) Hemacytometer.
(§5) Imaging and biodistribution experiments were performed using NODSCID 1L2RγKO male mice. Mice were anesthetized by inhalation with 2% isoflurane in oxygen, and implanted subcutaneously with 1×10^7 LNCaP cells behind left shoulder. Mice were imaged or used in biodistribution studies when the tumor grew up to reach 5-8 mm in diameter during 5-6 weeks.
(§6) PET imaging experiments were conducted using Siemens Inveon micro PET/CT scanner. Each tumor bearing mouse was injected 6-8 MBq of Ga-68 or F-18 labeled tracer through the tail vein under anesthesia (2% isoflurane in oxygen). The mice were allowed to recover and roam freely in their cage. After 50 min, the mice were sedated again with 2% isoflurane in oxygen inhalation and positioned in the scanner. A 10-min CT scan was conducted first for localization and attenuation correction after segmentation for reconstructing the PET images. Then, a 10-min static PET imaging was performed to determined uptake in tumor and other organs.
(§7) For biodistribution studies, the mice were injected with the radiotracer as described above.

Procedure for in vivo: as §1, §2, §3, §4, §5, §6, §7

As for `O=C(O)CCC[C@H](NC(=O)N[C@@H](CCCCNC(=O)[C@H](Cc1c2ccccc2cc2ccccc12)NC(=O)c1ccc(NC(=O)CN2CCN(CC(=O)O)CCN(CC(=O)O)CCN(CC(=O)O)CC2)cc1)C(=O)O)C(=O)O` [68Ga-HTK04041, metal not drawn], the tissue uptake at 1 h in the data set “in vivo” (Adrenal glands uptake) was found to be 0.31 ± 0.05 %ID/g; in the data set “in vivo” (Blood uptake), 1 ± 0.09 %ID/g; in “in vivo” (Bone uptake), 0.13 ± 0.02 %ID/g; in “in vivo” (Brain uptake) it was 0.02 %ID/g; in the data set “in vivo” (Fat uptake), 0.11 ± 0.03 %ID/g; in the data set “in vivo” (Heart uptake), 0.3 ± 0.03 %ID/g. Moreover, the tissue uptake at 1 h is 0.19 ± 0.04 %ID/g in “in vivo” (Intestine uptake); 6.82 ± 2.93 %ID/g in the data set “in vivo” (Kidneys uptake); 0.11 ± 0.05 %ID/g in “in vivo” (Lacrimal uptake); 0.37 ± 0.08 %ID/g in the data set “in vivo” (Liver uptake); 0.82 ± 0.08 %ID/g in the data set “in vivo” (Lungs uptake); 0.13 ± 0.03 %ID/g in the data set “in vivo” (Muscle uptake). Besides, the tissue uptake at 1 h in the data set “in vivo” (Pancreas uptake) was determined as 0.15 ± 0.02 %ID/g; in “in vivo” (Salivary uptake), 0.26 ± 0.04 %ID/g; in the data set “in vivo” (Seminal uptake), 1.68 ± 3.44 %ID/g; in “in vivo” (Spleen uptake), 0.4 ± 0.11 %ID/g; in the data set “in vivo” (Stomach uptake), 0.07 ± 0.03 %ID/g; in the data set “in vivo” (Tail uptake), 0.57 ± 0.05 %ID/g. Further, the tissue uptake at 1 h in “in vivo” (Testes uptake) worked out at 0.31 ± 0.05 %ID/g; in the data set “in vivo” (Thyroid uptake) it was 0.29 ± 0.04 %ID/g; in “in vivo” (Tumor uptake), 12.2 ± 3.15 %ID/g. The excreta dose per gram or mL at 1 h in “in vivo” worked out at 396 ± 92.3 %ID/g. In addition, the “Blood: Salivary ratio” value in data set [1] (mouse, in vivo) is given as 3.96 ± 0.51. In data set [1] (mouse, in vivo), the “Tumor: Blood ratio” value came to 12.4 ± 3.62. The “Tumor: Kidney ratio” value in data set [1] (mouse, in vivo) is listed as 2.06 ± 0.89. The “Tumor: Muscle ratio” value in data set [1] (mouse, in vivo) stood at 95.1 ± 33.7. In data set [1] (mouse, in vivo), the “Tumor: Salivary ratio” value is 48.2 ± 12.2.

As to `O=C(O)CCC[C@H](NC(=O)N[C@@H](CCCCNC(=O)[C@H](Cc1cccc(I)c1)NC(=O)[C@H]1CC[C@H](CNC(=O)CN2CCN(CC(=O)O)CCN(CC(=O)O)CCN(CC(=O)O)CC2)CC1)C(=O)O)C(=O)O` [68Ga-HTK04053, metal not drawn], the tissue uptake at 1 h worked out at 0.12 ± 0.03 %ID/g in the data set “in vivo” (Adrenal glands uptake); 0.29 ± 0.05 %ID/g in “in vivo” (Blood uptake); 0.04 ± 0.01 %ID/g in “in vivo” (Bone uptake); 0.01 %ID/g in the data set “in vivo” (Brain uptake); 0.04 ± 0.01 %ID/g in “in vivo” (Fat uptake); 0.09 ± 0.02 %ID/g in the data set “in vivo” (Heart uptake). The tissue uptake at 1 h came out at 0.15 ± 0.03 %ID/g in “in vivo” (Intestine uptake); 3.48 ± 2.39 %ID/g in “in vivo” (Kidneys uptake); 0.05 ± 0.01 %ID/g in the data set “in vivo” (Lacrimal uptake); 0.13 ± 0.07 %ID/g in the data set “in vivo” (Liver uptake); 0.28 ± 0.04 %ID/g in “in vivo” (Lungs uptake); 0.05 ± 0.01 %ID/g in “in vivo” (Muscle uptake). The tissue uptake at 1 h in “in vivo” (Pancreas uptake) was 0.06 ± 0.02 %ID/g; in the data set “in vivo” (Salivary uptake) it was 0.06 ± 0.02 %ID/g; in the data set “in vivo” (Seminal uptake) it was 7.61 ± 12.5 %ID/g; in “in vivo” (Spleen uptake) it was 0.12 ± 0.03 %ID/g; in the data set “in vivo” (Stomach uptake), 0.06 ± 0.04 %ID/g; in the data set “in vivo” (Tail uptake), 0.2 ± 0.07 %ID/g. In addition, the figures for the tissue uptake at 1 h in the data set “in vivo” (Testes uptake), in “in vivo” (Thyroid uptake) and in the data set “in vivo” (Tumor uptake) were 0.11 ± 0.02 %ID/g, 0.09 ± 0.01 %ID/g and 4.96 ± 2.75 %ID/g, respectively. Moreover, the excreta dose per gram or mL at 1 h in “in vivo” was 523 ± 330 %ID/g. Moreover, in data set [1] (mouse, in vivo), the “Blood: Salivary ratio” value is recorded as 5.19 ± 1.73. Also, in data set [1] (mouse, in vivo), the “Tumor: Blood ratio” value is given as 16.8 ± 7.00. For the same molecule, the “Tumor: Kidney ratio” value in data set [1] (mouse, in vivo) is 1.84 ± 1.26. In addition, in data set [1] (mouse, in vivo), the “Tumor: Muscle ratio” value was 93.7 ± 27.0. Moreover, the “Tumor: Salivary ratio” value in data set [1] (mouse, in vivo) came to 84.3 ± 32.1.

Turning to `O=C(O)CN1CCN(CC(=O)O)CCN(CC(=O)NC[C@H]2CC[C@H](C(=O)N[C@@H](Cc3c4ccccc4cc4ccccc34)C(=O)NCCCC[C@H](NC(=O)N[C@@H](C[C@H](F)C(=O)O)C(=O)O)C(=O)O)CC2)CCN(CC(=O)O)CC1` [HTK04040], in the data set “in vivo” (kidney uptake), the tissue uptake at 1 h came to 76 %ID/g. The “binding to PSMA (in words)” value in data set [1] (concluded from biodistribution) is “bind well to PSMA”. Further, in data set [1] (mouse, in vivo), the “kidney and salivary gland uptake (in words)” value was “much less kidney and salivary gland uptake”.
